{"source": "patent US20150274802A1", "key": {"type A insulin receptor [1]": {"target": "type A insulin receptor (UniProt P06213)", "test": "cell-based or functional assay"}, "[2]": {"target": "type A insulin receptor, P06213", "test": "cell-based or functional assay"}, "type A insulin receptor [3]": {"target": "type A insulin receptor (UniProt P06213)", "test": "competitive binding SPA, subtype A insulin receptor (FIG. 17D)"}, "[4]": {"target": "type B insulin receptor, P06213", "test": "cell-based or functional assay"}}, "note": "Square brackets hold non-standard residues; d marks the D form. Primed or numbered codes have the meaning given here. Ends that are not written are not given here. PEG4″ = 4-unit polyethylene glycol spacer; PEG8″ = 8-unit polyethylene glycol spacer", "data": [{"binder": "#55: Lys^B1-PEG9-Lys^B1 #20* dimer, GE5K-B^1(H5,10Y16L17)25-C^1-A^1(H8N18,21) (ligand) GEEEEEKGPEHLCGAHLVDALYLVCGDRGFYGYGSSSRRAPQTGIVDECCHRSCDLRRLENYCN", "values": [{"measurement": "Phosphorylation (EC50), % IR-A", "setting": "type A insulin receptor [1]", "value": 44, "unit": "%"}]}, {"binder": "Ac-GPEHLCGAELVDALYLVCGDRGFY[PEG8″]KGIVDECCFRSCDLRRLENYCN (ligand, not fully specified (some residues); numbers in words are those of the source; ends and bridges not checked; also: dimer: linker Lys epsilon-amines of two chains joined by bifunctional 20K PEG linker)", "note": "[#58: Lys^C8-PEG20K-Lys^C8 #3 dimer]", "values": [{"measurement": "Phosphorylation (EC50), % IR-A", "setting": "[2]", "value": 18.6, "unit": "%"}]}, {"binder": "Ac-GPEHLCGAELVDALYLVCGDRGFY[PEG8″]K(mercaptopropionyl)[PEG4″]GIVDECCFRSCDLRRLENYCN (ligand, ends and bridges not checked; also: dimer: linker Lys side chains joined by disulfide to second chain)", "note": "[#53: Lys^C8-Lys^C8 #3 dimer, B^1[H5Y16L17]25-PEG8KPEG4-A^1[N18,21]]", "values": [{"measurement": "binding affinity, fold against native insulin", "setting": "type A insulin receptor [3]", "value": 1.5, "unit": "fold"}]}, {"binder": "#57: Gly^B2-PEG20K-Gly^B2 #11 dimer (ligand, not fully specified (N-terminus); ends and bridges not checked; also: dimer: N-terminal amines of two chains joined by bifunctional 20K PEG linker) GPEHLCGAHLVDALYLVCGDRGFYGYGSSSRRAPQTGIVDECCHRSCDLRRLENYCN", "values": [{"measurement": "% Insulin Activity (in vitro, assay not named)", "setting": "[4]", "value": 5.8, "unit": "%"}, {"measurement": "Phosphorylation (EC50), % IR-B", "setting": "[4]", "value": 5.8, "unit": "%"}, {"measurement": "potency against the 20K PEGylated monomer (#39)", "setting": "[4]", "value": 4, "unit": "fold"}, {"measurement": "% Insulin Activity (in vitro, assay not named)", "setting": "[2]", "value": 19.7, "unit": "%"}, {"measurement": "Phosphorylation (EC50), % IR-A", "setting": "[2]", "value": 19.7, "unit": "%"}, {"measurement": "potency against the 20K PEGylated monomer (#39)", "setting": "[2]", "value": 4, "unit": "fold"}]}, {"binder": "#56: Gly^B2-PEG10K-Gly^B2 #11 dimer (ligand, not fully specified (N-terminus); ends and bridges not checked; also: dimer: N-terminal amines of two chains joined by bifunctional 10K PEG linker) GPEHLCGAHLVDALYLVCGDRGFYGYGSSSRRAPQTGIVDECCHRSCDLRRLENYCN", "values": [{"measurement": "Phosphorylation (EC50), % IR-B", "setting": "[4]", "value": 9.7, "unit": "%"}, {"measurement": "Phosphorylation (EC50), % IR-A", "setting": "[2]", "value": 38.2, "unit": "%"}]}, {"binder": "#59: Cys^B1-Lys^C8 #2(sc)-#3 dimer (ligand, here or on the partner: N-terminus acetylated; linker Lys epsilon-amine mercaptopropionylated; Cys B1 side chain disulfide-linked to the mercaptopropionyl group on the linker Lys of the second chain) chain 1: CGPEHLCGAELVDALYLVCGDRGFYFNKKGIVDECCFRSCDLRRLENYCN chain 2: GPEHLCGAELVDALYLVCGDRGFYKGIVDECCFRSCDLRRLENYCN", "values": [{"measurement": "maximal response", "setting": "[4]", "value": 10, "unit": "%"}, {"measurement": "IC50, antagonism test", "setting": "[2]", "value": 2.08, "unit": "nM"}]}, {"binder": "#60: Cys^B1-Lys^C8 #2(tc)-#3 dimer (ligand, here or on the partner: N-terminus acetylated; linker Lys epsilon-amine mercaptopropionylated; Cys B1 side chain disulfide-linked to the mercaptopropionyl group on the linker Lys of the single-chain unit) chain 1: CGPEHLCGAELVDALYLVCGDRGFYFNKK chain 2: GIVDECCFRSCDLRRLENYCN chain 3: GPEHLCGAELVDALYLVCGDRGFYKGIVDECCFRSCDLRRLENYCN", "values": [{"measurement": "maximal response", "setting": "[4]", "value": 50, "unit": "%"}, {"measurement": "IC50, antagonism test", "setting": "[2]", "value": 1.89, "unit": "nM"}, {"measurement": "maximal receptor response", "setting": "[2]", "value": 50, "unit": "%"}]}]}
